Holding throughout (assay): potentiometry
What all share (settings): 298 K; 0.1 M NaClO4; metal-free peptide, random coil

Data set [1] addresses Glu7 (position 7, …).
The target in data set [2] is Glu7 (position 7, …). The source holds these as a separate data set.
The target in data set [3] is Glu7 (position 7, …). The source holds these as a separate data set.
Data set [4] concerns the target Glu7 (position 7, …). This is another data set of the same source.

DKPAKAEDQDHHHGHAH [GroEL1 C-terminal tail peptide L3 (H9Q mutant of L2) (Mycobacterium tuberculosis; H9Q)] gave a pKa in data set [1] of 4.74.
In turn, DKPAKAEDHDHHHGQAH [GroEL1 C-terminal tail peptide L7 (H15Q mutant of L2) (Mycobacterium tuberculosis; H15Q)] showed a pKa in data set [2] of 4.45.
On to DKPAKAEDHDHHQGHAH [GroEL1 C-terminal tail peptide L6 (H13Q mutant of L2) (Mycobacterium tuberculosis; H13Q)], for which the pKa in data set [2] turned out to be 4.96.
For the protein DKPAKAEDHDHQHGHAH [GroEL1 C-terminal tail peptide L5 (H12Q mutant of L2) (Mycobacterium tuberculosis; H12Q)], in data set [3], the pKa is 4.36.
The protein DKPAKAEDHDQHHGHAH [GroEL1 C-terminal tail peptide L4 (H11Q mutant of L2) (Mycobacterium tuberculosis; H11Q)] showed a pKa in data set [4] of 4.71.
DKPAKAEDHDHHHGHAQ [GroEL1 C-terminal tail peptide L8 (H17Q mutant of L2) (Mycobacterium tuberculosis; H17Q)] came in with a pKa in data set [2] of 4.44.

The values above are taken from publication PMC10170517.
